The record followed here is PMC3413123.

By stoichiometry N is commonly meant the number of molecules, sites or subunits per partner or assembly.

One assay addresses ParGβCopG (UniProt Q9KJ82). As to the kind of experiment: cross-linking.
For a further assay, the target named is ParGβMetJ (UniProt Q9KJ82). As to the kind of experiment: cross-linking.

Take ParGβCopG (from UniProt Q9KJ82 1-76): the stoichiometry N in the assay with ParGβCopG turned out to be 2.

In turn, ParGβMetJ (from UniProt Q9KJ82 1-76) had a stoichiometry N in the assay with ParGβMetJ of 2.
